Source: patent publication US20060141545A1

Experiments:
[1] = target: murine VCAM-1 (vascular endothelial adhesion molecule-1) (murine) (UniProt P29533); assay: cell-based or functional assay
[2] = target: murine VCAM-1 (vascular endothelial adhesion molecule-1) (murine) (UniProt P29533); assay: bEnd.3 cells, unstimulated against IL-1α-stimulated
[3] = target: murine VCAM-1 (vascular endothelial adhesion molecule-1) (murine) (UniProt P29533); assay: IL-1α-activated bEnd.3 cells treated with anti-VCAM-1•tTF, bound coaguligand detected with 125I-labeled 10H10

UniProt P29533, sequence (P29533 25-739): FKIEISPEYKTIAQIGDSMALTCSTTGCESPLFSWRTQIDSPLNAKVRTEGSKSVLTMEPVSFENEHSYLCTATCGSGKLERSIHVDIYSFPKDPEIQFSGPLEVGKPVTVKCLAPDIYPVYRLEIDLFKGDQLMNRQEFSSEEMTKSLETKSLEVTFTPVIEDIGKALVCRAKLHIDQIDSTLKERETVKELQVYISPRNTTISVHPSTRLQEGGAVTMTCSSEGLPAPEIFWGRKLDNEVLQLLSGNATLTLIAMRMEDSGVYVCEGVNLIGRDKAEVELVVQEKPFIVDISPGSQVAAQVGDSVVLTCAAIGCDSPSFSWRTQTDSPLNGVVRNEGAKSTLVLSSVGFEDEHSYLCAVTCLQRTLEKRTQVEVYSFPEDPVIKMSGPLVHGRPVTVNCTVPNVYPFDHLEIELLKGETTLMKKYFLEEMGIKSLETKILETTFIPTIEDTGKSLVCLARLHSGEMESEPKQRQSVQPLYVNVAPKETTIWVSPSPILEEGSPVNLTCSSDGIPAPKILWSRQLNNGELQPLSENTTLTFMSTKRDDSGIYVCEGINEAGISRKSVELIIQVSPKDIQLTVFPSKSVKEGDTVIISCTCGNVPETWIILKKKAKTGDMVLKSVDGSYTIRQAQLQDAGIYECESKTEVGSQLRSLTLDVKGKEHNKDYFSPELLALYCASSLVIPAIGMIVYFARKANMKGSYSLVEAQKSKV

anti-VCAM-1•tTF coaguligand (MK2.7 anti-VCAM-1 IgG covalently linked through SMPT to truncated human tissue factor) (from UniProt P13726 33-251)
Generation of factor Xa (chromogenic assay, S-2765), intact IL-1α-stimulated bEnd.3 cells (ng per 10^4 cells per 60 min) [1]: 3.17
Generation of factor Xa (chromogenic assay, S-2765), intact unstimulated bEnd.3 cells (ng per 10^4 cells per 60 min) [1]: 1.64
Generation of factor Xa (chromogenic assay, S-2765), saponin-permeabilized IL-1α-stimulated bEnd.3 cells (ng per 10^4 cells per 60 min) [1]: 98.8
Generation of factor Xa (chromogenic assay, S-2765), saponin-permeabilized unstimulated bEnd.3 cells (ng per 10^4 cells per 60 min) [1]: 49.2
factor Xa produced by permeabilized IL-1α-stimulated bEnd.3 cells preincubated with coaguligand, no Annexin V ([1]; scale: ng of factor Xa per 10,000 cells per 60 min): 95
amount bound to unstimulated cells against stimulated cells [2]: 50 % lower
amount of anti-TF antibody bound at saturation [3]: 8.7 fmol
molecules of anti-TF antibody bound per cell at saturation (molecules per cell) [3]: 540000
